Assay results as given in patent US20040152160A1 (UNIVERSITY OF SOUTH FLORIDA, published 2004).

Target: α7-2-nAChR (homomeric receptor of the rat α7-2 splice variant subunit expressed in Xenopus oocytes) (rat, UniProt Q05941 28-502)
Experiment: summary statement; no assay given at this place

B1: α-bungarotoxin (ligand)
chain: IVCHTTATSPISAVTCPPGENLCYRKMWCDAFCSSRGKVVELGCAATCPSKKPYEEVTCCSTDKCNPHPKQRPG
binding result: binds
